Test [1] deals with mixture of 10 nM human Factor B, 5 nM human Ba and 10 nM human Bb coated on the plate. The test can be described thus: counterscreening ELISA, plate coated with a mixture of human Factor B, Ba and Bb, Fab supernatant. Background: A counterscreen serves to expose hits that act by an unwanted route or on another target.
For test [2], the target named is T1, stabilized human C3bBb complex comprising the Bb subunit of the FB protein of SEQ ID NO: 2 (single mutant), … (human, UniProt P01024 23-667; P00751 260-764; P01024 749-1663, limits assumed, biotinylated with EZ-Link HPDP-Biotin (Cys)).
T1 construct: also called C3bBb (D279G)
The test can be described thus: ELISA, biotinylated C3bBb on streptavidin plate, Fab supernatant, anti kappa/anti T7 HRP. The method, then:
(§1) Method: 20 μl of a mixture of 500 ng/ml stabilized human C3bBb-Cys-HPDP-Biotin (inhouse preparation), 1:3000 mouse anti human kappa HRP (Southern Biotech 9230-05) and 1:2000 Mouse IgG anti T7 Tag HRP (Novagen 69048-3) was added to a Microcoat Streptavidine coated 384 well Microplate (Microcoat 11974998001). 25 μl sample was added to the plate and incubated at room temperature for 1 hour. After incubation plates were washed with 90 μl/well washing buffer using a Biotek EL406 Washer and 30 μl TMB (3,3′,5,5′-3,3,5,5-Tetramethylbenzidine, Roche 11835033001) was added. After a 5 Minute incubation at room temperature the optical density (OD) was measured at 370 nm using an En Vision Multimode Plate Reader (Perkin Elmer).

Test [3] deals with T2, stabilized human C3bBb complex comprising the Bb subunit of the FB protein of SEQ ID NO: 3 (triple mutant), … (human, UniProt P01024 23-667; P00751 260-764; P01024 749-1663, limits assumed, biotinylated with EZ-Link HPDP-Biotin (Cys)).
T2 construct: also called C3bBb (D279G/350N/M458I); C3bBb triple mutant-HPDP
The test is described as above. As for the experimental part: as §1

In test [4] the target is mixture of 5 nM human C3, 5 nM human C3a and 2.5 nM human C3b coated on the plate. The test can be described thus: counterscreening ELISA, plate coated with a mixture of human C3, C3a and C3b, Fab supernatant.
In test [5] the target is T3, plasma purified C3b (Complement Technology), biotinylated at cysteine 1010 with Maleimide-PEG3-biotin (human, UniProt P01024 23-667; P01024 749-1663, limits assumed, cysteine 1010 biotinylated (Maleimide-PEG3-biotin)).
T3 construct: Loaded on streptavidin BLI sensors; also called Complement C3 beta chain (C3b); C3 fragment
The test can be described thus: BLI, biotinylated C3b on streptavidin sensor, FB with factor D, Ni2+ buffer, dissociation of C3bBb, single exponential fit. The source says: Correction of the BLI trace was identical to the experiment in presence of magnesium. Different from the Mg2+ containing C3bBb complexes, only one species was detected during dissociation and a single exponential decay (A*exp(((−1)*B)*x)) was used for analysis.
(In BLI a coated tip is dipped into the sample, and binding shifts an interference pattern.)

For test [6], the target named is T3, plasma purified C3b (Complement …). Kind of test: BLI, dissociation of C3bBb, Ni2+ buffer, against wild type C3bBb formed in presence of magnesium ions.
For test [7] the target is unchanged. The test can be described thus: BLI, biotinylated C3b on streptavidin sensor, FB with factor D, Mg2+ buffer, dissociation of C3bBb, double exponential fit. As for the experimental part:
To analyze stability of the C3bBb complexes having the different Bb subunits, C3b cysteine 1010 was biotinylated by incubating plasma purified C3b (Complement Technology) overnight at 4° C. in presence of 5 molar excess Maleimide-PEG3-biotin (Thermo Fisher Scientific) followed by purification on a Zeba spin column 40K (Thermo Fisher Scientific). This material was used to load streptavidin functionalized BLI sensors (SA sensors; Fortebio) in an Octet RED 384 device (Fortebio) at high density (5 nm BLI signal). C3bBb was assembled by exposing the C3b loaded sensors to different recombinant factor B variants (i.e. wild type SEQ ID NO: 1; D279G variant of SEQ ID NO: 2; D279G K350N M458I triple variant of SEQ ID NO: 3) in presence of 54 nM plasma purified factor D (Complement Technology) in HBS-T (Mg) buffer (150 mM NaCl, 10 mM HEPES, 1 mM MgCl2, 0.005% Tween20. pH 7.4) at 22° C. […]
After subtraction of the signal recorded from parallel reference sensors omitting the C3b loading step and subtraction of a control sensor omitting factor B and factor D, data of the dissociation phase was fitted to the double exponential ((A*exp(((−1)*B)*x)))+(C*exp(((−1)*D)*x)) using XLfit (IDBS software), allowing for heterogeneity in the assembled convertase population. […]

The values that follow come from patent US20260193372A1 (Hoffmann-La Roche, published 2026).

T3 sequence (P01024 23-667 limits assumed, chain 1 of 2): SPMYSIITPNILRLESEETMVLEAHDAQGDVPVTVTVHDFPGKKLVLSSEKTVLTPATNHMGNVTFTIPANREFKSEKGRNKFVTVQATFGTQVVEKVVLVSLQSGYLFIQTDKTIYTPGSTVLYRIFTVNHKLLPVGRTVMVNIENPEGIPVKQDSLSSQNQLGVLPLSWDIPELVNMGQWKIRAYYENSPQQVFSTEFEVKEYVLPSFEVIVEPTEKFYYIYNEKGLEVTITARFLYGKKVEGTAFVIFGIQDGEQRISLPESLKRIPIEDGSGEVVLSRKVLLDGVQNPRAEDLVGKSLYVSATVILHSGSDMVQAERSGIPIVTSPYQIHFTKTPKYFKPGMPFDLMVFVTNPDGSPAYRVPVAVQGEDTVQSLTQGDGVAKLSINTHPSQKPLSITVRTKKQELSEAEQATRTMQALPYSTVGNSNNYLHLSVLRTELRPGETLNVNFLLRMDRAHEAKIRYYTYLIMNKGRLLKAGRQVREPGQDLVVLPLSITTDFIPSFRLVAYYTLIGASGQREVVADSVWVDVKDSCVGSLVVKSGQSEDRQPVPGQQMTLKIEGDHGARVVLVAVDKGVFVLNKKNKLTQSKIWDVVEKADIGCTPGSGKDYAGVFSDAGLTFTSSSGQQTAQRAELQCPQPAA
T3 sequence (P01024 749-1663 limits assumed, chain 2 of 2): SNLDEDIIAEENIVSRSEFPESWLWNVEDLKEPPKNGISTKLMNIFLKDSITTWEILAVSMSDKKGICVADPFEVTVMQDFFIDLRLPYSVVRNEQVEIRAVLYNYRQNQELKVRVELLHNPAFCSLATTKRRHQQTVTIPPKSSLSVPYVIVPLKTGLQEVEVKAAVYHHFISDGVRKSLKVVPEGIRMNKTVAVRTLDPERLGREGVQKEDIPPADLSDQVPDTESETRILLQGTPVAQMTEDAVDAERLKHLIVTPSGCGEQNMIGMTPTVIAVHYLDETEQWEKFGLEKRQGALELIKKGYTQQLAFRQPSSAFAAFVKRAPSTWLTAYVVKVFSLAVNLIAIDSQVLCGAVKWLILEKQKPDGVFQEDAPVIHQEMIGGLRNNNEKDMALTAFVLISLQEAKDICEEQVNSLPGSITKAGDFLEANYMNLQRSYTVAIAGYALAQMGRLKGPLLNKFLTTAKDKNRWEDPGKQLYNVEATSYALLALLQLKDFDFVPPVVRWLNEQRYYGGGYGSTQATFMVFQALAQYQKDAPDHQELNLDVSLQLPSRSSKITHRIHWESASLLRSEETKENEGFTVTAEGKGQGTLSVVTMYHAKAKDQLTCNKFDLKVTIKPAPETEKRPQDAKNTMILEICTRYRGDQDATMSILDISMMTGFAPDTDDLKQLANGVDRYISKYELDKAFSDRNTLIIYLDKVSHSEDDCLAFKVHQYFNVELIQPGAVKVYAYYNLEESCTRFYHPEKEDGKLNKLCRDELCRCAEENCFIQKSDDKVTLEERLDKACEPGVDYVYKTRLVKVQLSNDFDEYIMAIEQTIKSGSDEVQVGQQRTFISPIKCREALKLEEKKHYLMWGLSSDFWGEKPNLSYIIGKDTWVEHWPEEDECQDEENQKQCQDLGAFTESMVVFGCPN
T1 sequence (P01024 23-667 limits assumed, stated change not applied, chain 1 of 3): as the sequence (P01024 23-667 limits assumed, chain 1 of 2) above
T1 sequence (P00751 other isoform, or with tags, fused parts or gaps mutant limits assumed, chain 2 of 3): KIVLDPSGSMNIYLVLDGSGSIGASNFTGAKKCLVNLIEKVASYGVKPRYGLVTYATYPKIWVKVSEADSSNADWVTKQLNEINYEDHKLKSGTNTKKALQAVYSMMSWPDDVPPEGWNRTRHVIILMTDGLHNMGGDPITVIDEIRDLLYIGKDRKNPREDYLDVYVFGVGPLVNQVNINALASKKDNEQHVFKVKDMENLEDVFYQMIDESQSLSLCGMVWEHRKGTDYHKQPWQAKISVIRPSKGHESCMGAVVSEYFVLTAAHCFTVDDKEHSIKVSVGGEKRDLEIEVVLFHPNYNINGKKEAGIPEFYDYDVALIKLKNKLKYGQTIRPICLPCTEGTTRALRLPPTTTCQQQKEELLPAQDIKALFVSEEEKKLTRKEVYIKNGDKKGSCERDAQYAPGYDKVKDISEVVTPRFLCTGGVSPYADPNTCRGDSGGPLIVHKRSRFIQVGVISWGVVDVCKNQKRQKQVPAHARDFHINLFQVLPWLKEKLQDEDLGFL
T1 sequence (P01024 749-1663 limits assumed, stated change not applied, chain 3 of 3): as the sequence (P01024 749-1663 limits assumed, chain 2 of 2) above
T2 sequence (P01024 23-667 limits assumed, stated change not applied, chain 1 of 3, one chain of several): as the sequence (P01024 23-667 limits assumed, chain 1 of 2) above
T2 sequence (P01024 749-1663 limits assumed, stated change not applied, chain 3 of 3, one chain of several): as the sequence (P01024 749-1663 limits assumed, chain 2 of 2) above

B1: C3bBb.P048.061 (Fab, V domains shown)
VH: GQLVESGGGLVKPGGSLRLSCKASGFYWGPGAMSWVRQAPGKGLEWVGSISPKGGSTDINPKIGGRFTISRDNNQDTLYLQMNSLRAEDTAVYYCARDIGFFDTWGQGTLVTVSS
VL: AIQMTQSPSSLSASVGDRVTITCQGSWLISNYLAWYQQKPGKAPKLLIFDAKYRAPEVPSRFSGSGSGTDFTLTISSLQPEDFATYYCQQYGGRLLTFGQGTKVEIK
notes: Tested as soluble Fab in E. coli supernatant with a T7 tag at the C-terminus of the Fab CH1 domain; detected with anti human kappa
With B1, the OD (370 nm) is 0.006 OD in test [1], 0.004 OD in test [2], 1.9 OD in test [3] and 0.001 OD in test [4].

B2: C3bBb.P055.015 (Fab, V domains shown)
VH: GQLVESGGGLVKPGGSLRLSCKASGFYWGPGAMSWVRQAPGKGLEWVGSISPKGGSAEYASKVYGRFTISRDNNQDTLYLQMNSLRAEDTAVYYCARDIGFFDTWGQGTLVTVSS
VL: DYQMTQSPSSLSASVGDRVTITCEAHSQISNYLAWYQQKPGKAPKLLIFDAKYRAPEVPSRFSGSGSGPDFTLTISSLQPEDFATYYCQQYNDFWLTFGQGTKVEIK
notes: as for B1
For B2, the OD (370 nm) in test [1] is 0.004 OD; in test [2], 0.86 OD; in test [3], -0.01 OD; in test [4], -0.014 OD.

B3: C3bBb.P048.127 (Fab, V domains shown)
VH: GQLVESGGGLVKPGGSLRLSCKASGFYWGPGAMSWVRQAPGKGLEWVGSISPKGGSTEYNTKVYGRFTISRDNNQDTLYLQMNSLRAEDTAVYYCARDIGFFDTWGQGTLVTVSS
VL: HQMTQSPSSLSASVGDRVTITCDGEWDISNYLAWYQQKPGKAPKLLIFDAKYRAPEVPSRFSGSGSGRDFTLTISSLQPEDFATYYCQQYNRMYFTFGQGTKVEIK
notes: as for B1
Turning to B3, the OD (370 nm) was 0.002 OD in test [1], 2.42 OD in test [2], 0.187 OD in test [3] and -0.006 OD in test [4].

B4: C3bBb.P048.241 (Fab, V domains shown)
VH: GQLVESGGGLVKPGGSLRLSCKASGFYWGPGAMSWVRQAPGKGLEWVGSISPKGGSAWYNNNFTGRFTISRDNNQDTLYLQMNSLRAEDTAVYYCARDIGFFDTWGQGTLVTVSS
VL: INQMTQSPSSLSASVGDRVTITCQAKWVISNYLAWYQQKPGKAPKLLIFDAKYRAPEVPSRFSGSGSDGTFTLTISSLQPEDFATYYCQQYDWWPYTFGQGTKVEIK
notes: as for B1
With B4, the OD (370 nm) in test [1] turned out to be 0.037 OD; in test [2] it was 2.57 OD; in test [3], 2.38 OD; in test [4] it was 0.17 OD.

B5: C3bBb.P045.072 (Fab, V domains shown)
VH: KLQLVESGGGLVKPGGSLRLSCAASGRRFGVQDMSWVRQAPGKGLEWVGSISPKGDHKYLNTKFIGRFTISRDNSKNTLYLQMNSLRAEDTAVYYCARDWGYFDQWGQGTLVTVSS
VL: AIQMTQSPSSLSASVGDRVTITCHGSYWLSSEVAWYQQKPGKAPKLLIYDGNGIIGNVPSRFSGSGSHEDYTLTISSLQPEDFATYYCQQYRYHPYTFGHGTKVEIK
notes: as for B1
For B5, the OD (370 nm) in test [1] is -0.01 OD; in test [2] it was 0.023 OD; in test [3], 2.9 OD; in test [4], -0.005 OD.

B6: recombinant human FB with D279G, K350N and M458I with His Tag and Precission site (enzyme)
chain: KIVLDPSGSMNIYLVLDGSGSIGASNFTGAKKCLVNLIEKVASYGVKPRYGLVTYATYPKIWVKVSEADSSNADWVTKQLNEINYEDHKLNSGTNTKKALQAVYSMMSWPDDVPPEGWNRTRHVIILMTDGLHNMGGDPITVIDEIRDLLYIGKDRKNPREDYLDVYVFGVGPLVNQVNINALASKKDNEQHVFKVKDIENLEDVFYQMIDESQSLSLCGMVWEHRKGTDYHKQPWQAKISVIRPSKGHESCMGAVVSEYFVLTAAHCFTVDDKEHSIKVSVGGEKRDLEIEVVLFHPNYNINGKKEAGIPEFYDYDVALIKLKNKLKYGQTIRPICLPCTEGTTRALRLPPTTTCQQQKEELLPAQDIKALFVSEEEKKLTRKEVYIKNGDKKGSCERDAQYAPGYDKVKDISEVVTPRFLCTGGVSPYADPNTCRGDSGGPLIVHKRSRFIQVGVISWGVVDVCKNQKRQKQVPAHARDFHINLFQVLPWLKEKLQDEDLGFL
notes: Cleaved by factor D in the assay; the Bb subunit stays on C3b; also called FB (D279G, K350N and M458I); triple mutated Bb
On to B6, for which the “prevalence of main species” value in test [5] was found to be 100%; in test [7], 93%. Also, the figures for the “t ½” value in test [5] and in test [7] were 11.3 h and 1.98 h, respectively. Also, the “fold increase in C3bBb half-life” value in test [6] turned out to be 135 fold.
